Laboratory results from the nanobody polyreactivity screen of Harvey et al. (2022).

Assay: yeast display, Sf9 membrane polyspecificity reagent, FACS + sequencing; frameworks hold sequencing errors
How it was run: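 Using colony PCR, genes from sorted yeast display clones were amplified, then sequenced on MiSeq at 2 × 250 and filtered by CDR length. The clones had been stained with 10% biotinylated, detergent-solubilized Sf9 membrane reagent for 1 hour at 4 °C and sorted by FACS into low and high (top ~1%) gates on anti-HA and streptavidin fluorescence. Polyreactivity labels come from the gate of origin.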

Row | Sequence | polyreactivity (PSR sort gate)
1 | QVQLVESGGGLVQAGGSLRLSCAASGSIFQSYAMGWYRQAPGKERELVAAITERGGSTYYADSVKGRFTISRDTAKNTVYLQMNSLKPEDTAVYYCAADIYYWWCLSDLYTPTEGDYWGQGTQVTVSS | low polyreactivity
2 | QVQLVESGGGLVLAGGSLRLSCAASGFTFFIYVMGWYRQAPGKEREFVAAISSSGDSTYYADSVKGRFTISRDNAKNTVYLQMNSLKPEDTAVYYCNAGDKFSSYWYDYWGQGTQVTVSS | low polyreactivity
3 | QVQLVESGGGLVQAGGSLRLSCAASGITFYVYAMGGSRQAPGKERELVAAMTRSGGITSYADSVKGRFTISRDNAKNTGYLQMNSLKPEDTAVYYCAAERTNQHYHIQGVGYWGQGTQVTVSS | low polyreactivity
4 | QVQLVESGGGLVQAGGSLRLSCAASGIIFERYAMGWYRQAPGKERELVATISWSGGSTRYADSVKGRFTISRDNAKNTVYLQMNSLKPEDTAVYYCAAPSYFRMGYWGQGTQVTVSS | low polyreactivity
5 | QVQLVESGGGLVQAGGSLRLTCAASGRTFSYNAMGWYRQAPGKERELVAAISYDGGRTYYADSVKGRFTISRDNAKNSVYLQMNSLKPEDTAVYFCAAYPYRCPHPWTIGDYWGQGTQVTVSS | low polyreactivity
6 | QVQLVESGGGLVQAGGSLRLSCAASGSTFWYAMGWYRQAPGKERELVAAITARGGRTYYADSVKGRFTISRDNAKNTVYLQMNSLKPEDTAVYYCAAVSTGIGARYNYWGQGTQVTVSS | high polyreactivity
7 | QVQLVESGGGLVQAGGSLRLSCAASGFTFGSYAMGWYIQAPGKERELVARISSDGSTNYADSVKGRFTISRDNAKNTVYLQMNSLKPEDTAVYYSARDRKRQADDIGEFDYWGQGTQVTVSS | low polyreactivity
8 | QVQLQECGGGLVQAGGSLRLSCAARGNIFDADIMGWYRQAPGKESELLASVTDGGSTNYADSVKGRFTISRDNAKNTVYLQMNSLKPEDSAVYYCAAIVYPDILTYFDYDYDYFYWGQGTQVTVGS | low polyreactivity
9 | QVQLVESGGGLVQAGGSLRLSCAASGSSFDWNAMGWYRQAPGKERELVASITGSGGGTNYADSVKGRFTISRDNAKNTVYLQMNSLKPEDTAVYYCNADGLNFDGHEYWGQGTQVTVSS | low polyreactivity
10 | QVQLVESGGGLVQAGGSLRLSCAASGSIFGYYAMGWYTLAPGKERELVASISFSGGSTYYADSVKGRFTISRDNAKNTVYLQMNSLKPEDTAVYYCAKRPRFVYWKHGYWGQGTQVTVSS | high polyreactivity
11 | QVQLVESGGGLVQAGGSLRLSCAASGSTFGVNAKGWYREAPGKERELVAGITSSGGSTYYADSVKGRFTTSRDNAKNTVYLQMNSLKPEDTAVYYCAARWIPASYGYGYWGQGTQVTVSS | low polyreactivity
12 | QVQLVESGGGLVQAGGSLRLSCAASGFTFNFNAMGWYRQAPGKERELVAAIRWSGGNTYYADSVKGRFTISRDNAKNTVYLQMNSLKPEDTAVYYCNRVGYQSMNYWGQGTQVTVSS | low polyreactivity
13 | QVQLVESGGGLVQAGGSLRLSCAASGRIFSRYAMGWYRQAPGKERELVAAINKSGGSTYYADSVKGRFTISRDNEKYTVYLQMNSLKPEDTAVDYCNAVYYWYKGDYWGQGTQVTVSS | high polyreactivity
14 | QVQHVESGGGLVQAGGSLRLSCAASGIIFTTYAMGWYRQAPGKERELVAAISRSGSTYYADSVKGRFTISRDNAKNTVYLQMNSLKPEDTAVYYCASGRWRWRGYDYYWGQGSQVTVSS | high polyreactivity
15 | QVQLVESGGGLVQAGGSLRLSCAASGITFRYYAMGWYRPAPRKERELVAVISTSGGSTYYADSVKGRFTISRDNAKNTVYLQMNSLKPEDTAVYYCAARYSRSRRYRMDYWGQGTQVTVSS | high polyreactivity
16 | QVQLVESGGGLVQAGGSLRLSCAASGRIFPYYTMGWYRQAPGKERELVATITTGGSTNYADSVKGRFTISRDNAENTVYLQMNSLKPEDTAVYYCNNDGVVVGRFTGPQEYDYWGQGTQVTVSS | low polyreactivity

Row | Sequence | polyreactivity (PSR sort gate)
17 | QVQLVESGGGLVQAGGSLRLSCAASGNTFVQNTMGWYRPATGKETELVAAISTRGGSTYYADSLKGRFTISRDNAKNTVYLQMNSLKPVDTAVYYCAARSKVRRSYDYWGQGTQVTVSS | high polyreactivity
18 | QVQLVESGGGLVQAGGSLRLRCADSGRNFVSNAMGWYRQAPGKERELVAAISKSGARTSYADSVKGRFTISRDNAKNTVYLQMNRLKPEDTAVYYCAAPVRWSGGGEYPNYYWGQGTQVTVSS | high polyreactivity
19 | QVQLVESVLGLVQAGGSLRLSCAASGSTILSNAIGWYRQAPGKERELVAAITSGGSTYYADSVKGGFTISRDNAKNTVYFQMNSLKPDDTAVYYCAVRYDRRRYDYWGQGTQVTVSS | low polyreactivity
20 | QVQLVESGVGLVQAGGSLRLSCAASGIILYRYSMGWYRQAPGKEREFGAAISRTGASTYYADSVKGRFTISRDNAKKSVYLQMNSRKPEDTAVYYCDVKALDQARYGKSGYWGQGTQVSVSS | high polyreactivity
21 | QVQLVESGGGLVQAGGSLRLSCAASGRTFAVYAMGWYRQAPGKERELVAAITYGGGRTSYADSVKGRFTISRDYAKNTVYFQMKRLKPEDTAVYSCAADYYGTDYDYWGQGTQVTVSS | low polyreactivity
22 | QVQLVESGGGVVQAGGSLRLSCAASGFTFGLYAMGWYRQAPGKERELVAVISSSGGSTYYADSVKGRFTISRDNAKNTVYLQMNSLKPEDTAVYYCAAEWHDYKFDVTYDYWGQGTQVTVSS | low polyreactivity
23 | QVQLVESGVGLVQAGGSLRLSCAASGSILSGYAMGWYRQAPGKERELVAAINDGGGTNYADSVKGRFTISRDNAKNTVYLQMNSLKPEDTAVYYCNKVYYFQRRLTPVYLMDYWGQGTQVTVSS | low polyreactivity
24 | QVQLVESGGGLVQAGGSLRLSCAASGRISIIYAMGWYRQAPGKERELVARISGSGGSTNYADSVKGRFTISRDNAKNTVYLQMISLKPEDTAVYYCAAVPWRIHKYYYWGQGTQVTVSS | high polyreactivity
25 | QVQLVESGGGLVQAGGSLRLSCAASGNIFLYYAMGWYRQAPGKERELVADIDSSGASTYYADSVKGRFTISRDNAKNTVYLQMNSLKPEDTAVYYCATEDFRTDTGMYYWGQGTQVTVSS | low polyreactivity
26 | QVQLVESGGGLVQAGGSLRLSCAASGFTFYRNTMGWYRQAPGKERELVATITFSGTRTYYADSVKGRFTISRDNAKNTVYLQMNSLKPEDTAVYYCAADRPRRTKWGGGGYYWGQGTQVTVSS | high polyreactivity
27 | QVQLVESGGGLVQAGGSLRLSCAASGLIFGSYAMGWYRQAPGKERELVAASSRSGGSTYYADSVKGRFTISRDKAKNSVYLQMISLKPEDTAVYYFAADDYSSEYDYWGQGTQVTVSS | high polyreactivity
28 | QVQLVESGGGLVQAGGSLRLICAASGYIFDHYAMGWYRQAPGKERELVAAINWSGGRTYYADSVKGRFTISRDNAKNTVYLQMNSLKPEDTAVYYCAAGGVSENDYWGQGTQVTVSS | high polyreactivity
29 | QVQLQESVGGLVQAGGSLRLSCPASGSIFKVVDMVLYRQAPAKEREFVATIGVGGNTYYADSVKGRFTISRDNAKNTVYLQMNSLKPEDTAVYFYAVVLGTSYRYTYWGQGTQVTVSS | low polyreactivity
30 | QVQLVESGGGLVQAGGSLRLSCAASGRTFPYNAMGWYRQAPGKERELVAGITGGGSTYYADSVKGRFTISRDNAKKTVYLQMNSLKPEDTAVYYCAADRYFLYGTYPDVEFNYWGQGTQVTVSS | high polyreactivity
31 | QVQLVESGGGLVQAGGSLRLSCAASGFTFIRYAMGWYRQAPGKERELVASISNRGGRTYYADSVKGRFTISRDNAKNTVYLQMNSLKPEDTAVYYCAAGYSTYRAVWTDNNYWGQGTQVTVSS | high polyreactivity
32 | QVQHVESGGGLVQAGGRLRLSCAASGSIFVAYAMGWSRTAPGKERELVAAITYSAGSTYYADSVKGRITISRDNAKNTVYLQMNSLKPEDTAVYYCAADAMVFSFIGYEYWGQGTQVTVSS | low polyreactivity
